Drawing on article doi:10.1101/2023.03.09.531992, this text covers fold slower binding rate than the wild-type S tail and fold tighter binding than the wild-type S tail for one molecule.

This test concerns the target full-length, extra-membrane clientized (Thr1273Glu) S tail, biotinylated (BLI) (SARS-CoV-2). Description: BLI.

B1: S. pombe αWD40 domain (N-terminal WD40 domain of α-COPI), wild type (domain or fragment)
chain: MEMLTKFESRSSRAKGVAFHPTQPWILTSLHNGRIQLWDYRMGTLLDRFDGHDGPVRGIAFHPTQPLFVSGGDDYKVNVWNYKSRKLLFSLCGHMDYVRVCTFHHEYPWILSCSDDQTIRIWNWQSRNCIAILTGHSHYVMCAAFHPSEDLIVSASLDQTVRVWDISGLRMKNAAPVSMSLEDQLAQAHNSISNDLFGSTDAIVKFVLEGHDRGVNWCAFHPTLPLILSAGDDRLVKLWRMTASKAWEVDTCRGHFNNVSCCLFHPHQELILSASEDKTIRVWDLNRRTAVQTFRRDNDRFWFITVHPKLNLFAAAHDSGVMVFKLE
B1: the fold slower binding rate than the wild-type S tail turned out to be 2.4 fold and the fold tighter binding than the wild-type S tail was 11 fold.
